Where “and” joins values, the source holds several entries; their conditions need not be identical. Equal values may be shown once.
What was measured:
[1] = target: T1, human complement component 5 (C5) (Homo sapiens, UniProt P01031); assay: SEC-MALS; antibody (700 nM) plus C5 (400 nM) incubated about 30 min at room temperature in PBS; Bio SEC-5 1000 A column run in PBS; no eculizumab; settings: both partners purified
T1 construct: complement component 5 (C5), human; also called hC5; terminal complement component C5; source: bought: Complement Technology, purified human C5 (cat. #A120); also endogenous in human plasma (BioIVT)

[2] = target: T1, human complement component 5 (C5); assay: cell-based or functional assay

B1: mAb TPP-2799 (antibody, V domains shown)
VH: QVQLVESGGGLVQPGRSLRLSCAASGFTVHSSYYMAWVRQAPGKGLEWVGAIFTGSGAEYKAEWAKGRVTISKDTSKNQVVLTMTNMDPVDTATYYCASDAGYDYPTHAMHYWGQGTLVTVSS
VL: DIQMTQSPSSLSASVGDRVTITCRASQGISSSLAWYQQKPGKAPKLLIYGASETESGVPSRFSGSGSGTDFTLTISSLQPEDFATYYCQNTKVGSSYGNTFGGGTKVEIK
notes: heavy chain of Chugai mAb RO7112689 (crovalimab) as described in CAS Registry Number 1917321-26-6; light chain of Chugai mAb RO7112689 (crovalimab) as described in CAS Registry Number 1917321-26-6; MALS mass alone 154 kDa; also called RO7112689; source: Expi293, transiently expressed, purified (MabSelect SuRe); copies: 2 + 2
For B1, the “stoichiometry N” value [1] was 1 C5 per TPP-2799 and 2 C5 per TPP-2799 and the “IC50 of inhibition of classical-pathway hemolysis of antibody-sensitized chicken red blood cells in 20% (v/v) human serum” value [2] was 30 nM.

— PMC10118082 (PLOS ONE, 2023)
